In patent US7772001B2, “Directed differentiation of embryonic stem cells into an endoderm cell” (Yissum Research Development Company Of the Hebrew …, priority 2000, dated 2010):
“Also recorded” adds a separate entry of the source.

B1: BMP-4: human recombinant Bone Morphogenic Protein 4, 10 ng/ml (protein, UniProt P12644 293-408, looked up)
Bone morphogenetic protein 4: SPKHHSQRARKKNKNCRRHSLYVDFSDVGWNDWIVAPPGYQAFYCHGDCPFPLADHLNSTNHAIVQTLVNSVNSSIPKACCVPTELSAISMLYLDEYDKVVLKNYQEMVVEGCGCR
B2: Activin-A: human recombinant Activin-A, 20 ng/ml (protein, UniProt P08476 311-426, looked up)
Inhibin beta A chain: GLECDGKVNICCKKQFFVSFKDIGWNDWIIAPSGYHANYCEGECPSHIAGTSGSSLSFHSTVINHYRMRGHSPFANLKSCCVPTKLRPMSMLYYDDGQNIIKKDIQNMIVEECGCS

Key:
[1] = system: human differentiated embryonic (DE) cells; experiment: Morphology of DE cells cultured with growth factors; type: cell-based; conditions: several days on plastic, continuous exposure to growth factor (FIG. 1B)
Procedure: (§1) Cell Culture: Human embryonic stem cells were grown on a feeder layer of mouse embryonic fibroblasts (MEF) and then transferred to gelatin coated plates and cultured further to reduce the number of murine cells in the culture. Differentiation into embryoid bodies (EBs) was initiated by transfer to Petri dishes, where the embryoid bodies remained in suspension. After 5 days, the EBs become dissociated and cells are cultured as a monolayer forming differentiated embryonic (DE) cells. This protocol allows for initial differentiation of the human embryonic stem cells as aggregates and further differentiation as a monolayer wherein cells can be exposed to exogenous growth factors. The DE cells were cultured for 10 days in the presence of 8 different growth factors: NGF, bFGF, Activin-A, TGFβ1, HGF, EGF, BMP4 and retinoic acid (RA) (FIG. 1A).
To induce formation of EBs, ES cells were transferred using trypsin/EDTA (0.1%/l mM) to plastic Petri dishes to allow their aggregation and prevent adherence to the plate. Human EBs were grown in the same culture medium, except that it lacked leukemia inhibitory factor (LIF) and bFGF. The EBs were cultured for 5 days and then dissociated and plated on tissue culture plates coated with 50 μg/ml Fibronectin (Boehringer Mannheim). […]

[2] = system: human differentiated embryonic (DE) cells; experiment: RT-PCR of cell specific genes in DE cells treated with growth factors; type: cell-based; conditions: for overall induction or repression of cell specific expression (FIG. 3B): at least three experiments
Procedure: as §1
To induce formation of EBs, ES cells were transferred using trypsin/EDTA (0.1%/l mM) to plastic Petri dishes to allow their aggregation and prevent adherence to the plate. Human EBs were grown in the same culture medium, except that it lacked leukemia inhibitory factor (LIF) and bFGF. The EBs were cultured for 5 days and then dissociated and plated on tissue culture plates coated with 50 μg/ml Fibronectin (Boehringer Mannheim). The cells were grown in the presence of the following human recombinant growth factors used singly or in groups: Basic Fibroblast Growth Factor (bFGF) (Swoboda et al, 1999)—10 ng/ml (Gibco BRL); Transforming Growth Factor Beta 1 (TGFβ1) (Swoboda et al, 1999)—2 ng/ml (R&D Systems); Activin-A (Slager et al, 1993)—20 ng/ml (R&D Systems); Bone Morphogenic Protein 4 (BMP-4) (Slager et al, 1993; Bain et al, 1996)—10 ng/ml (R&D Systems); Hepatocyte Growth Factor (HGF)/Scatter Factor (Doetsch et al, 1999)—20 ng/ml (R&D Systems); Epidermal Growth Factor (EGF) (Doetsch et al, 1999)—100 ng/ml (R&D Systems); βNerve Growth Factor (NGF) (Johansson et al, 1999)—100 ng/ml (R&D Systems); Retinoic acid (RA) (Deacon et al, 1998; Peschanski et al, 1995)—1 μM (Sigma). Under these conditions the differentiated embryonic (DE) cells were grown for another 10 days. All of the examined growth factors are absent from the KnockOut™ serum replacement in which the embryonic cells were cultured.
RT-PCR Analysis: Total RNA was extracted using Atlas™ Pure Total RNA Kit (Clontech). cDNA was synthesized from 1 μg total RNA, using Atlas™ RT-for-PCR Kit (Clontech). cDNA samples were subjected to PCR amplification with DNA primers selective for the human genes. For each gene, the DNA primers were derived from different exons to ensure that the PCR product represents the specific mRNA species and not genomic DNA. PCR was performed using the Clontech Advantaq+™ RT-PCR kit and using a two-step cycle at 68° C.
Primers were synthesized for the following genes: neurofilament heavy chain (NF-H), phosphoprotein enriched in astrocytes (PEA-15), Keratin, Dopamine β Hydroxylase (DβH), Follicular Stimulating Hormone (FSH), Enolase, Myosin light polypeptide2 (myosin), Cartilage Matrix Protein (CMP), Renin, Kallikrein, Wilms Tumor 1 (WTI), β-Globin (β-Glob), δ-Globin (δ-Glob), Cardiac Actin (cACT), Albumin, α1 anti-trypsin (α1 AT), Lipase, Amylase, PDX-1, Insulin, Glucagon, Surfactant, Parathyroid Hormone (PTH), α-feto protein (αFP), Retinoic Acid Receptor type alpha (RAR), Hepatocyte Growth Factor Receptor (c-Met), Nerve Growth Factor Receptor (NGFR), Fibroblast Growth Factor Receptor type I (FGFRI), Transforming Growth Factor Receptor type II (TGFRII), Epidermal Growth Factor Receptor type (EGFR), Activin Receptor type IIB (ACTRIIB), Bone Morphogenic Protein 4 Receptor type II (BMP4RII), Octamer Binding Protein 4 (Oct 4), Glyceraldehyde 3-phosphate dehydrogenase (G3PD), β-Actin. Also incorporated by reference, see http://www.ls.huji.ac.il/˜nissimb/factors_es/primers.html-ente.
The differentiation induced by growth factors was further examined by determining the expression of a panel of 24 cell specific genes using RT-PCR. […]

[3] = vs control without growth factor (FIG. 4)

Molecule | cell morphology found in treated culture [1] | overall induction or repression of cell specific expression (FIG. 3B) [2] | blood formation [2, 3] | differentiation into chondrocytes [2, 3] | differentiation into ectodermal cells [2, 3] | differentiation into mesodermal cells [2, 3] | differentiation into skin cells [2, 3] | differentiation into Mullerian duct cells [2, 3] | differentiation into endodermal cells [2, 3] | differentiation into kidney cells [2, 3]
B1 | large round cells | mostly repress or fail to direct differentiation of as many cell types | reduced | reduced | allow or induce | allow or induce; also recorded: inhibits differentiation of all other mesodermal cells examined | apparently permitting skin cells to form | – | – | –
B2 | muscle like syncytiums | mostly repress or fail to direct differentiation of as many cell types | inhibit | inhibit | inhibit | allow differentiation into selected mesodermal cells | – | inhibit | inhibit | inhibit
